Positions count from the first letter of the chain named.
T1: human CD24 protein (ACRO) (human, UniProt P25063 27-59)
T1 construct: also called analyte human CD24 protein
T1 chain (looked up): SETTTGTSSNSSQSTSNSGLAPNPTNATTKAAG

T2: CD24 on tumor cells (MCF7, SKOV3, HT55, huCD24-MDA-MB-231, CD24-SKOV3) (human, UniProt P25063 27-59)
T2 construct: whole, on cells; The cell line of each result is named under assay
T2 chain (looked up): T1 chain (looked up)

B1: humanized antibody hu-01-L2H3 (antibody, human IgG1, kappa, V domains shown)
VH: QVQLVQSGSELKKPGASVKVSCKASGYIFTDYAIHWVKQAPGQGLEWMGFINTATGEPTYADDFKGRFVFSLDTSVSTAYLQISSLKAEDTAVYFCTSGVHWGQGTLVTVSS
VL: DIQMTQSPSTLSASVGDRVTITCSASSSVSSMHWYQQKPGKAPKLLIYSTSNLASGVPSRFSGSGSGTEYTLTISSLQPDDFATYYCHHWTSYMYTFGGGTKVEIKR
notes: Humanized from ms-01: light chain L2, heavy chain H3
B2: humanized antibody hu-01-L1H4 (antibody, human IgG1, kappa, V domains shown)
VH: B1 VH with E46K
VL: B1 VL with Y70F
notes: Humanized from ms-01: light chain L1, heavy chain H4
B3: humanized antibody hu-01-L3H4 (antibody, human IgG1, kappa, V domains shown)
VH: B1 VH with E46K
VL: B1 VL with M4L, A42S
notes: Humanized from ms-01: light chain L3, heavy chain H4
B4: humanized antibody hu-01-L2H2 (antibody, human IgG1, kappa, V domains shown)
VH: B1 VH with K38R
VL: B1 VL
notes: Humanized from ms-01: light chain L2, heavy chain H2
B5: humanized antibody hu-01-L3H3 (antibody, human IgG1, kappa, V domains shown)
VH: B1 VH
VL: B1 VL with M4L, A42S
notes: Humanized from ms-01: light chain L3, heavy chain H3
B6: humanized antibody hu-01-L2H4 (antibody, human IgG1, kappa, V domains shown)
VH: B1 VH with E46K
VL: B1 VL
notes: Humanized from ms-01: light chain L2, heavy chain H4
B7: humanized antibody hu-01-L1H3 (antibody, human IgG1, kappa, V domains shown)
VH: B1 VH
VL: B1 VL with Y70F
notes: Humanized from ms-01: light chain L1, heavy chain H3
B8: humanized antibody hu-01-L2H1 (antibody, human IgG1, kappa, V domains shown)
VH: B1 VH with K38R, F95Y, T97A, S98R
VL: B1 VL
notes: Humanized from ms-01: light chain L2, heavy chain H1
B9: humanized antibody hu-01-L1H2 (antibody, human IgG1, kappa, V domains shown)
VH: B1 VH with K38R
VL: B1 VL with Y70F
notes: Humanized from ms-01: light chain L1, heavy chain H2
B10: humanized antibody hu-01-L3H2 (antibody, human IgG1, kappa, V domains shown)
VH: B1 VH with K38R
VL: B1 VL with M4L, A42S
notes: Humanized from ms-01: light chain L3, heavy chain H2
B11: chimeric antibody CH-01 (antibody, human IgG1, kappa, V domains shown)
VH: QIQLVQSGPELKKPGETVKISCKASGYIFTDYAIHWVKQAPGKGLKWMGFINTATGEPTYADDFKGRFAFSLETSASTAYLQVNSLKNEDTATYFCTSGVHWGQGTTLTVSS
VL: QIVLTQSPAIMSASLGEEITLTCSASSSVSSMHWYQQKSGTSPKLLIYSTSNLASGVPSRFSGSGSGTFYSLTISSVESEDAADYYCHHWTSYMYTFGGGTKLEIKR
notes: ms-01 variable regions on a human IgG framework, expressed in CHO cells
B12: murine anti-CD24 antibody ms-01 (antibody, V domains shown)
VH: B11 VH
VL: QIVLTQSPAIMSASLGEEITLTCSASSSVSSMHWYQQKSGTSPKLLIYSTSNLASGVPSRFSGSGSGTFYSLTISSVESEDAADYYCHHWTSYMYTFGGGTKLEIK
notes: Mouse antibody from a hybridoma
B13: chimeric antibody CH-02 (antibody, human IgG1, kappa, V domains shown)
VH: EVQLQESGPDLVKPSQSLSLTCTVTGYSITSGYTWHWIRQFPGNKLEWMGHIQYTGNTKYNPSLESRISITRETSKNQFFLQLNSVTTEDTGTYYCARGSTNSNDYWGQGTSVTVSS
VL: DIVMTQSPSSLAVSVGEKVTVSCKSSQSLLYSNDQKNYLAWYQQKPGQSPKLLIYWASTRESGVPDRFTGSGSGTDFTLTITSVKAEDLAVYYCQQYFIYPLTFGAGTKLELKR
notes: ms-02 variable regions on a human IgG framework, expressed in CHO cells
B14: hu-02-L1H8 (antibody, human IgG1, kappa, V domains shown)
VH: EVQLQESGPGLVKPSQTLSLTCTVSGYSITSGYTWHWIRQFPGNKLEWMGHIQYTGNTKYNPSLESRITISRDTSKNQFSLKLSSVTAADTATYYCARGSTNSNDYWGQGTLVTVSS
VL: DIVMTQSPDSLAVSLGERATINCKSSQSLLYSNDQKNYLAWYQQKPGQPPKLLIYWASTRESGVPDRFSGSGSGTDFTLTISSLQAEDVAVYYCQQYFIYPLTFGGGTKLELKR
notes: also called humanized antibody hu-02-L1H8
B15: humanized antibody hu-02-L1H7 (antibody, human IgG1, kappa, V domains shown)
VH: B14 VH with M49I
VL: B14 VL
notes: Humanized from ms-02: light chain L1, heavy chain H7
B16: humanized antibody hu-02-L1H1 (antibody, human IgG1, kappa, V domains shown)
VH: B14 VH with E1Q, F41H, N44K, K45G, M49I, I68V, R72V, T93V
VL: B14 VL
notes: Humanized from ms-02: light chain L1, heavy chain H1

Legend:
[1] = biological target: CD24 on tumor cells (MCF7, SKOV3, HT55, huCD24-MDA-MB-231, CD24-SKOV3) (human) (UniProt P25063); test: flow cytometry on MCF7 cells (MFI); fit value given for a flat control curve; unit inferred, unit from the x axis label
[2] = biological target: CD24 on tumor cells (MCF7, SKOV3, HT55, huCD24-MDA-MB-231, CD24-SKOV3) (human) (UniProt P25063); test: flow cytometry on SKOV3 cells (MFI); fit value given for a flat control curve; unit inferred, unit from the x axis label
[3] = biological target: CD24 on tumor cells (MCF7, SKOV3, HT55, huCD24-MDA-MB-231, CD24-SKOV3) (human) (UniProt P25063); test: flow cytometry on huCD24-MDA-MB-231 cells (MFI); fit value given for a flat control curve; unit inferred, unit from the x axis label
[4] = biological target: CD24 on tumor cells (MCF7, SKOV3, HT55, huCD24-MDA-MB-231, CD24-SKOV3) (human) (UniProt P25063); test: flow cytometry on SKOV3 cells (MFI)
[5] = biological target: T1, human CD24 protein (ACRO); test: BLI (ForteBio Octet RED96e), antibody immobilised, human CD24 protein as analyte
Protocol: ForteBio […] (BLI) was used to detect the affinity of humanized antibodies. The sample to be tested (solidified) was diluted to 20 μg/mL with 0.02% PBST (buffer). The analyte human CD24 protein (ACRO) was diluted to 100 nM with 0.02% PBST (buffer) as the initial concentration, and then diluted by double gradient for 7 gradients starting from this concentration, and a negative control (buffer) was performed.
The molecular interaction analysis instrument (ForteBio; Octet RED96e) was operated, and 200 μL of curing buffer (0.02% PBST) was added to a pre-wetted plate, and the sensor was pre-wetted for 5-10 min. Diluted samples and other reagents for assay were added into wells in the sample plate corresponding to the pre-wetted sensor.

[6] = biological target: T2, CD24 on tumor cells (MCF7, SKOV3, HT55, …); test: flow cytometry on SKOV3 cells (MFI); table under the graph prints no unit, unit from the x axis label
Protocol: (§1) The commercial antibody SN3 (ABCOM; ab134375) and IgG1 isotype control were used as control. MCF7, SKOV3, HT55 or huCD24-MDA-MB-231 cells were taken and transferred to a centrifuge tube, and centrifuged at 1000 rpm for 5 min. 100 μL of MCF7, SKOV3, HT55, or huCD24-MDA-MB-231 cells were spread in a 96 U plate, respectively, and washed twice with PBS. 100 μL of the fusion supernatant was added, and diluted for 8 gradients. Cells were incubated at 4° C. for 60 minutes, and then washed twice with excess FACS buffer. Cells were resuspended in 100 μL of FACS buffer and sheep anti-mouse secondary antibody-FITC (ABCOM; ab6785) was added to the samples, incubated for 30 minutes and washed twice with excess FACS buffer. Cells were fixed in fixation buffer and subsequently analyzed by flow cytometry.
(§2) The binding activity of the chimeric antibodies CH-01 and CH-02 and tumor cells was detected according to the method of Example 6.

[7] = biological target: T2, CD24 on tumor cells (MCF7, SKOV3, HT55, …); test: flow cytometry on MCF7 cells (MFI); table under the graph prints no unit, unit from the x axis label
Protocol: as §1, §2

[8] = biological target: T2, CD24 on tumor cells (MCF7, SKOV3, HT55, …); test: flow cytometry on MCF7 cells (MFI)
Protocol: as §1

[9] = biological target: T2, CD24 on tumor cells (MCF7, SKOV3, HT55, …); test: flow cytometry on huCD24-MDA-MB-231 cells (MFI); table under the graph prints no unit, unit from the x axis label
[10] = biological target: T2, CD24 on tumor cells (MCF7, SKOV3, HT55, …); test: flow cytometry on MCF7 cells (MFI)

Molecule	Kd [5] [nM]	also measured
IgG1 isotype control (antibody)		EC50 [1]: 0.142 µg/mL; EC50 [2]: 49.7 µg/mL; EC50 [3]: 3.49 µg/mL
commercial antibody SN3 (ABCOM; ab134375)		EC50 (read off the curve) [4]: 2 µg/mL
B1	9.03	
B2	48.2	
B3	41.2	
B4	10.5	
B5	12.4	
B6	39.1	
B7	10	
B8		binding result [5]: no binding (tested: 100 nM (highest analyte concentration))
B9	5.58	
B10	8.29	
B11	8.08	EC50 [6]: 1.2 µg/mL; EC50 [7]: 1.69 µg/mL
B12		EC50 (read off the curve) [8]: ~2 µg/mL
B13	11.9	EC50 [9]: 4.03 µg/mL
B14		binding result [10]: binds
B15	20.5	EC50 [9]: 3.42 µg/mL
B16	62.7	EC50 [9]: 2.08 µg/mL

Reference: US20250263499A1 (SHENGHE CHINA BIOPHARMACEUTICAL, published 2025)
